Experimental data taken from patent US20100260668A1 (published 2010).
“And” between values parts separate entries of the source, which are not always exact repeats. Equal entries are not always repeated. Each block holds one binder with its values, some of them ahead of it.

Columns and labels:
CD-80 [1] = target: T1, CD-80 (UniProt P33681 35-288, limits assumed); test: flow cytometry on cells carrying the target, 2 ug/mL; C-terminal VD
T1 construct: whole, on cells; also called B7-1
T1 sequence (looked up): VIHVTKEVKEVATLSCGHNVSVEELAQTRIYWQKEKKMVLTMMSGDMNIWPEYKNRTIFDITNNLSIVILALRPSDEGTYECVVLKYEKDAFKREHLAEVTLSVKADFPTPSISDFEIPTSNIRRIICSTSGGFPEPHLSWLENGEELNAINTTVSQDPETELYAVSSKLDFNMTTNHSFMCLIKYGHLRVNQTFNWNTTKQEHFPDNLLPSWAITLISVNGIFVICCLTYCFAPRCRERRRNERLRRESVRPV

CD-20 = target: T2, CD-20 (UniProt P11836 1-297, limits assumed); test: flow cytometry on cells carrying the target, 2 ug/mL; parent antibody
T2 construct: whole, on cells
T2 sequence (looked up): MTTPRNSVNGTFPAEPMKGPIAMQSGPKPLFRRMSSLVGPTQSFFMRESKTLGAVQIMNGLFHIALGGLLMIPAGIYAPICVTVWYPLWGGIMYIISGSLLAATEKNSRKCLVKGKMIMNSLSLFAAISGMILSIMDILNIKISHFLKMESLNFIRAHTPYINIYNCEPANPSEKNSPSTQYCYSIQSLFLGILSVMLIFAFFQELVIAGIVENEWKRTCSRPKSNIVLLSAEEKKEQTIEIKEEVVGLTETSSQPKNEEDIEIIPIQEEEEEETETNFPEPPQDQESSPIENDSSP

[2] = target: T3, human DLL4 on 293G-human DLL4 cells (human, UniProt Q9NR61 27-685); test: FACS: inhibition of Notch1 binding to 293G-human DLL4 cells (competitor Notch1)
T3 construct: whole, on cells; no method paragraph describes this FACS assay

[3] = target: T4, human DLL4 extracellular domain (human, UniProt Q9NR61 27-529, biotin label in the Notch-1 competition ELISA (sites not given)); test: cell-based or functional assay
[4] = target: T4, human DLL4 extracellular domain; test: competition ELISA: 14 nM biotin-labelled human DLL4 ECD pre-mixed with antibody, then on coated human Notch-1 (competitor Notch-1)
[5] = target: T4, human DLL4 extracellular domain; test: competition ELISA: biotin-labelled human DLL4 ECD pre-mixed with antibody, then on coated human Notch-1 (competitor Notch-1)
CD-80 [6] = target: T1, CD-80; test: flow cytometry on cells carrying the target, 2 ug/mL; N-terminal VD
recombinant human HGF = target: T5, recombinant human HGF (human, UniProt P14210 32-728); test: competition ELISA: antibody co-incubated with 2 nM soluble c-Met Fc on coated HGF (competitor c-Met Fc)
T5 construct: The target there is entered as this HGF; also called hepatocyte growth factor

CD-19 [7] = target: T6, CD-19 (human, UniProt P15391 20-556); test: flow cytometry on cells carrying the target, 2 ug/mL; N-terminal VD
T6 construct: whole, on cells
T6 sequence (looked up): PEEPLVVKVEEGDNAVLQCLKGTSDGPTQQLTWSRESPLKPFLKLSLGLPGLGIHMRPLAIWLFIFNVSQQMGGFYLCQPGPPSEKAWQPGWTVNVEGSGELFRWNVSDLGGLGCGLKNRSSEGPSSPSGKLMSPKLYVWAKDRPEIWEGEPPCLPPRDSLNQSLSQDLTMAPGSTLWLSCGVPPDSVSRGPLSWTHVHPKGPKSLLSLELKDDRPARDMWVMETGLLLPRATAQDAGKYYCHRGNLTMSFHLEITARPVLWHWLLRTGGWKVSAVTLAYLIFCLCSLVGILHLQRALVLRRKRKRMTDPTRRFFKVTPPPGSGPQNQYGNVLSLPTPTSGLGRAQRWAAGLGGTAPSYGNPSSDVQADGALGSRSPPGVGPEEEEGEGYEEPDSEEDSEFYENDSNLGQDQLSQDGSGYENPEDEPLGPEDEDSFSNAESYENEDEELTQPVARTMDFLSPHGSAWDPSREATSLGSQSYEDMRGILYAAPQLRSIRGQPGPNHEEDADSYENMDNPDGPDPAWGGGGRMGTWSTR

[8] = target: T7, recombinant His-RON partial ECD (R&D Systems #1947-MS) (UniProt Q04912 25-957, limits assumed); test: competition ELISA: DVD-Ig pre-incubated with 10 nM His-RON partial ECD, then on captured MSP1 (competitor MSP1)
T7 construct: extracellular domain; also called MSP Receptor ECD-His tag; not shown: His tag

CD-80 [9] = target: T1, CD-80; test: flow cytometry on cells carrying the target, 2 ug/mL; parent antibody
IGF1R = target: T8, IGF1R (UniProt P08069 31-1367, limits assumed); test: as above
T8 construct: whole, on cells; also called insulin-like growth factor receptor

[10] = target: T9, placental growth factor (PLGF) (UniProt P49763-2 21-149, limits assumed); test: ligand-receptor binding competition assay, PlGF binding to VEGFR1
T9 construct: also called P1GF
T9 sequence (looked up): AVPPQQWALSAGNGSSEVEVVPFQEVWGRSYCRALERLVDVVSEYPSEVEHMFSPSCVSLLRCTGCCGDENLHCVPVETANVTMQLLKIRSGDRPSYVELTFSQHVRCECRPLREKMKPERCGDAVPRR

CD-19 [11] = target: T6, CD-19; test: flow cytometry on cells carrying the target, 2 ug/mL; parent antibody

T5 sequence (P14210 32-728 limits assumed): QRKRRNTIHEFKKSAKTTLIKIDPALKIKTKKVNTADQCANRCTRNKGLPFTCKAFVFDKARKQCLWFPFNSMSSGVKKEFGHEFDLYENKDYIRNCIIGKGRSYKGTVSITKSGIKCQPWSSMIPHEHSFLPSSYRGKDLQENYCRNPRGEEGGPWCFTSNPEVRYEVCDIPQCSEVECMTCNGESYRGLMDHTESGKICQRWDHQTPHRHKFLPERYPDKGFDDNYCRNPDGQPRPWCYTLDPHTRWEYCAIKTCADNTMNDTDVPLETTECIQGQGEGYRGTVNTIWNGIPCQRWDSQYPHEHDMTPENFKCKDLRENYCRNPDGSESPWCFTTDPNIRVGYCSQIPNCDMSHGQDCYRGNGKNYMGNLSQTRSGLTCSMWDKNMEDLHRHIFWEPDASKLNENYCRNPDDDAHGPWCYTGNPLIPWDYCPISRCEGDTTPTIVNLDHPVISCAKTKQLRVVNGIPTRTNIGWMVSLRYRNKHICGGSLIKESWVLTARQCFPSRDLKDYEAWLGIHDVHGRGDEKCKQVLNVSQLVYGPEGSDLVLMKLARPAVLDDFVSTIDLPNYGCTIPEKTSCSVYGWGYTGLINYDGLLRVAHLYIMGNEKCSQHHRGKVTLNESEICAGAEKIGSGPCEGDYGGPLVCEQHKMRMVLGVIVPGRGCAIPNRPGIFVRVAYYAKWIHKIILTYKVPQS

B1: DVD005 (bispecific antibody, human IgG1, lambda)
heavy: not shown
light: QIVLSQSPAILSPSPGEKVTMTCRASSSVSYIHWFQQKPGSSPKPWIYATSNLASGVPVRFSGSGSGTSYSLTISRVEAEDAATYYCQQWTSNPPTFGGGTKLEIKRTVAAPESALTQPPSVSGAPGQKVTISCTGSTSNIGGYDLHWYQQLPGTAPKLLIYDINKRPSGISDRFSGSKSGTAASLAITGLQTEDEADYYCQSYDSSLNAQVFGGGTRLTVLGQPKAAPSVTLFPPSSEELQANKATLVCLISDFYPGAVTVAWKADSSPVKAGVETTTPSKQSNNKYAASSYLSLTPEQWKSHRSYSCQVTHEGSTVEKTVAPTECS
notes: DVD-Ig; outer AB001 (CD-20), inner AB007 (CD-80); also called CD-20 and CD-80 DVD-Ig
- FACS Geometric Mean C-terminal (CD-80 [1]): 6

B2: AB001 (antibody, human IgG1, kappa, V domains shown)
VH: QVQLQQPGAELVKPGASVKMSCKASGYTFTSYNMHWVKQTPGRGLEWIGAIYPGNGDTSYNQKFKGKATLTADKSSSTAYMQLSSLTSEDSAVYYCARSTYYGGDWYFNVWGAGTTVTVSA
VL: QIVLSQSPAILSPSPGEKVTMTCRASSSVSYIHWFQQKPGSSPKPWIYATSNLASGVPVRFSGSGSGTSYSLTISRVEAEDAATYYCQQWTSNPPTFGGGTKLEIKR
notes: Parent antibody; also called anti-CD-20 parent antibody
- FACS Geometric Mean (CD-20): 95.8

B5: AB012 (anti-HGF (seq. 1) parent antibody) (antibody, human IgG1, kappa, V domains shown)
VH: QVQLVESGGGLVKPGGSLRLSCAASGFTFSDYYMSWIRQAPGKGLEWVSYISSSGSTIYYADSVKGRFTISRDNAKNSLYLQMNSLRAEDTAVYYCARDEYNSGWYVLFDYWGQGTLVTVSS
VL: DIQMTQSPSSVSASVGDRVTITCRASQGISSWLAWYQQKPGKAPNLLIYEASSLQSGVPSRFGGSGSGTDFTLTISSLQPEDFATYYCQQANGFPWTFGQGTKVEIKR
notes: also called AB012VH/AB012VL
- IC50 (recombinant human HGF): 0.18 nM

B8: AB007 (antibody, human IgG1, lambda, V domains shown)
VH: QVQLQESGPGLVKPSETLSLTCAVSGGSISGGYGWGWIRQPPGKGLEWIGSFYSSSGNTYYNPSLKSQVTISTDTSKNQFSLKLNSMTAADTAVYYCVRDRLFSVVGMVYNNWFDVWGPGVLVTVSS
VL: ESALTQPPSVSGAPGQKVTISCTGSTSNIGGYDLHWYQQLPGTAPKLLIYDINKRPSGISDRFSGSKSGTAASLAITGLQTEDEADYYCQSYDSSLNAQVFGGGTRLTVLG
notes: Parent antibody; also called anti-CD-80 parent antibody
- FACS Geometric Mean (CD-80 [9]): 25.4

B9: AB011 (antibody, human IgG1, kappa, V domains shown)
VH: EVQLLESGGGLVQPGGSLRLSCTASGFTFSSYAMNWVRQAPGKGLEWVSAISGSGGTTFYADSVKGRFTISRDNSRTTLYLQMNSLRAEDTAVYYCAKDLGWSDSYYYYYGMDVWGQGTTVTVSS
VL: DIQMTQFPSSLSASVGDRVTITCRASQGIRNDLGWYQQKPGKAPKRLIYAASRLHRGVPSRFSGSGSGTEFTLTISSLQPEDFATYYCLQHNSYPCSFGQGTKLEIKR
notes: Parent antibody
- FACS Geometric Mean (IGF1R): 1680

B10: AB047 (antibody, human IgG1, kappa, V domains shown)
VH: QVQLQQSGAELVKPGASVKISCKASGYTFTDYYINWVKLAPGQGLEWIGWIYPGSGNTKYNEKFKGKATLTIDTSSSTAYMQLSSLTSEDTAVYFCVRDSPFFDYWGQGTLLTVSS
VL: DIVLTQSPDSLAVSLGERVTMNCKSSQSLLNSGMRKSFLAWYQQKPGQSPKLLIYWASTRESGVPDRFTGSGSGTDFTLTISSVQAEDVAVYYCKQSYHLFTFGSGTKLEIKR
notes: Parent anti-PlGF antibody; also called AB047VH
- IC50 [10]: 3.07 nM

B11: AB006 (antibody, human IgG1, kappa, V domains shown)
VH: QVQLQQSGAELVRPGSSVKISCKASGYAFSSYWMNWVKQRPGQGLEWIGQIWPGDGDTNYNGKFKGKATLTADESSSTAYMQLSSLASEDSAVYFCARRETTTVGRYYYAMDYWGQGTSVTVSS
VL: DILLTQTPASLAVSLGQRATISCKASQSVDYDGDSYLNWYQQIPGQPPKLLIYDASNLVSGIPPRFSGSGSGTDFTLNIHPVEKVDAATYHCQQSTEDPWTFGGGTKLEIKR
notes: Parent antibody
- FACS Geometric Mean (CD-19 [11]): 979

Now from value to binder:

- IC50 [2]: 2.3 nM
- Ref. Ab Inhibition of sFlt1 (IC50, nM) [3]: 0.34 nM
- IC50 [4]: 2.47 nM and 2.69 nM and 2.53 nM and 2.74 nM
- IC50 [5]: 0.37 nM and 0.4 nM
B3: AB015 (anti-DLL-4 (seq. 1) parent antibody) (antibody, human IgG1, kappa)
heavy: not shown
light: DIQMTQSPSSLSASVGDRVTITCRASQDVSTAVAWYQQKPGKAPKLLIYSASFLYSGVPSRFSGSGSGTDFTLTISSLQPEDFATTYYCQQSYTGTVTFGQGTKVEIKRTVAAPSVFIFPPSDEQLKSGTASVVCLLNNFYPREAKVQWKVDNALQSGNSQESVTEQDSKDSTYSLSSTLTLSKADYEKHKVYACEVTHQGLSSPVTKSFNRGEC
notes: also called AB015VH/AB015VL

- FACS Geometric Mean N-terminal (CD-80 [6]): 70.7
B4: DVD006 (bispecific antibody, human IgG1, kappa)
heavy: not shown
light: ESALTQPPSVSGAPGQKVTISCTGSTSNIGGYDLHWYQQLPGTAPKLLIYDINKRPSGISDRFSGSKSGTAASLAITGLQTEDEADYYCQSYDSSLNAQVFGGGTRLTVLGQPKAAPQIVLSQSPAILSPSPGEKVTMTCRASSSVSYIHWFQQKPGSSPKPWIYATSNLASGVPVRFSGSGSGTSYSLTISRVEAEDAATYYCQQWTSNPPTFGGGTKLEIKRTVAAPSVFIFPPSDEQLKSGTASVVCLLNNFYPREAKVQWKVDNALQSGNSQESVTEQDSKDSTYSLSSTLTLSKADYEKHKVYACEVTHQGLSSPVTKSFNRGEC
notes: DVD-Ig; outer AB007 (CD-80), inner AB001 (CD-20); also called CD-80 and CD-20 DVD-Ig

- FACS Geometric Mean N-terminal (CD-19 [7]): 1100
B6: DVD002 (bispecific antibody, human IgG1, kappa)
heavy: not shown
light: DILLTQTPASLAVSLGQRATISCKASQSVDYDGDSYLNWYQQIPGQPPKLLIYDASNLVSGIPPRFSGSGSGTDFTLNIHPVEKVDAATYHCQQSTEDPWTFGGGTKLEIKRTVAAPQIVLSQSPAILSPSPGEKVTMTCRASSSVSYIHWFQQKPGSSPKPWIYATSNLASGVPVRFSGSGSGTSYSLTISRVEAEDAATYYCQQWTSNPPTFGGGTKLEIKRTVAAPSVFIFPPSDEQLKSGTASVVCLLNNFYPREAKVQWKVDNALQSGNSQESVTEQDSKDSTYSLSSTLTLSKADYEKHKVYACEVTHQGLSSPVTKSFNRGEC
notes: DVD-Ig; outer AB006 (CD-19), inner AB001 (CD-20); also called CD-19 and CD-20 DVD-Ig

- IC50 [8]: 21.3 nM
B7: DVD047 (VEGF (seq. 1) N-terminal / RON (seq. 1) C-terminal DVD-Ig) (bispecific antibody, human IgG1, kappa)
heavy: not shown
light: DIQMTQSPSSLSASVGDRVTITCSASQDISNYLNWYQQKPGKAPKVLIYFTSSLHSGVPSRFSGSGSGTDFTLTISSLQPEDFATYYCQQYSTVPWTFGQGTKVEIKRTVAAPDVVMTQSPLSLPVTPGEPASISCRSSQSLLHSNGFNYVDWYLQKPGQSPHLLIYFGSYRASGVPDRFSGSGSGTDFTLKISRVEAEDVGVYYCMQALQTPPWTFGQGTKVEIRRTVAAPSVFIFPPSDEQLKSGTASVVCLLNNFYPREAKVQWKVDNALQSGNSQESVTEQDSKDSTYSLSSTLTLSKADYEKHKVYACEVTHQGLSSPVTKSFNRGEC
notes: also called DVD047H/DVD047L
